Experimental findings from patent US5681719, “DNA encoding N- and C- terminally truncated colony stimulating factor-1 variants” (Chiron Corporation, dated 1997) are described below.

Experiment [1] deals with T1, specific receptors for CSF-1 on J774.2 mouse macrophage cells (mouse) (UniProt P09581).
T1 sequence: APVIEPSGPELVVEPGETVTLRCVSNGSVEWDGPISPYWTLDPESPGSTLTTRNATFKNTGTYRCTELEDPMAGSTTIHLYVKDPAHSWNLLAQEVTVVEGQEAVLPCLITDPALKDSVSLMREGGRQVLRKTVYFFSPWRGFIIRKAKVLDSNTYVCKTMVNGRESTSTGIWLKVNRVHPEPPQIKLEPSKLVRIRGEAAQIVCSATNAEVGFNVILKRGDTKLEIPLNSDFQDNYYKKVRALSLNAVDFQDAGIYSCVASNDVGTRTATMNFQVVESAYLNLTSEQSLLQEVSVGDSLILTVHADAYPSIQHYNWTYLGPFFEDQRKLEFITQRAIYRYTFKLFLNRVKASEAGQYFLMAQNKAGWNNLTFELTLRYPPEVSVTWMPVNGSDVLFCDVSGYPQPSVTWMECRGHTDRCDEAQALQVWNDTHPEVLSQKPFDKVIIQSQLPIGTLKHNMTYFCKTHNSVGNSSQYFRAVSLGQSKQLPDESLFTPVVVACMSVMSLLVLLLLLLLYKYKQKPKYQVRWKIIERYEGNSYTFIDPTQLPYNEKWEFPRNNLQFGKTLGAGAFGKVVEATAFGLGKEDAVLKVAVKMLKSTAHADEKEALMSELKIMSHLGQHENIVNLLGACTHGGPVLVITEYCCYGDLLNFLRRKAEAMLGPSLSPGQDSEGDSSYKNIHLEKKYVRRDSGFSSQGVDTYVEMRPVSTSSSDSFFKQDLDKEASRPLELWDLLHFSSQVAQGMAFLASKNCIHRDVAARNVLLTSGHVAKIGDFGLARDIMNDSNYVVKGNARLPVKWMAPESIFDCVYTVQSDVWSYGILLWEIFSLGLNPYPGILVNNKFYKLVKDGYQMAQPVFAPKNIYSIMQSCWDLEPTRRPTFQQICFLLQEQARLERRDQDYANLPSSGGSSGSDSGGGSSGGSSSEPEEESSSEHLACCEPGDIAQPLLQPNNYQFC

In experiment [2] the target is T1, specific receptors for CSF-1 on J774.2 mouse macrophage cells (mouse). This is another data set of the same source.
The target in experiment [3] is rabbit antisera raised against human urinary CSF-1. As to the kind of experiment: radioimmunoassay using anti-CSF antibodies, COS-A2 supernatant; first of three values.
Experiment [4] deals with T2, specific receptors for CSF-1 on J774.2 mouse macrophage cells (mouse, UniProt P09581).
T2 sequence: T1 sequence
Description: cell-based or functional assay.

For experiment [5], the target named is rabbit antisera raised against human urinary CSF-1. As to the kind of experiment: radioimmunoassay using anti-CSF antibodies, COS-A2 supernatant.
For experiment [6], the target named is "Rabbit 52" polyclonal antiserum raised against purified human urinary CSF-1. Description: radioimmunoassay: competition with 125I-labelled MIAPaCa CSF-1 for Rabbit 52 antiserum; medium of SV40-infected CV-1 cells.
For experiment [7], the target named is T1, specific receptors for CSF-1 on J774.2 mouse macrophage cells (mouse). As to the kind of experiment: radioreceptor assay: competition with 125I-labelled CSF-1 for receptors on J774.2 mouse macrophage cells; MIAPaCa supernatant as standard.

Several values for one entry are separate records, joined by “and”; a condition that tells them apart may be missing. Equal entries are not always repeated.

In the case of “asp59 SCSF, expression product of pCSF-asp59 (ligand)”, in experiment [1], the Bone Marrow Assay, Colony (units/ml) was determined as 9000 units/ml and the Bone Marrow Assay, Proliferation (units/ml) stood at 3380 units/ml.

Molecule “asp59 SCSF/C∇150, expression product of pCSF-asp59-gly150 (ligand)” came in with a Mouse Bone Marrow Colony Assay, Colony Forming Units/ml (Colony Forming Units/ml) in experiment [2] of 131000.

In experiment [1], “pro52 SCSF, expression product of pCSF-pro52 (ligand)” displayed a Bone Marrow Assay, Colony (units/ml) of less than 100 units/ml and a Bone Marrow Assay, Proliferation (units/ml) of less than 25 units/ml.

Molecule “asp59 SCSF/C∇158, expression product of pCSF-asp59-BamBcl (ligand)” showed a Mouse Bone Marrow Colony Assay, Colony Forming Units/ml (Colony Forming Units/ml) in experiment [2] of 72000.

“gln52 SCSF, expression product of pCSF-gln52 (ligand)”: in experiment [1], the Bone Marrow Assay, Colony (units/ml) is 6210 units/ml and the Bone Marrow Assay, Proliferation (units/ml) came out at 2970 units/ml.

B1: SCSF/C∇158, expression product of pCSF-BamBcl (ligand)
chain: EEVSEYCSHMIGSGHLQSLQRLIDSQMETSCQITFEFVDQEQLKDPVCYLKKAFLLVQYIMEDTMRFRDNTPNAIAIVQLQELSLRLKSCFTKDYEEHDKACVRTFYETPLQLLEKVKNVFNETKNLLDKDWNIFSKNCNNSFAECSSQGHERQSEGS
With B1, in experiment [3], the Radioimmunoassay (units/ml) was 8800 units/ml.

B2: SCSF/C∇158, expression product of pCSF-BamTGA (ligand)
chain: B1 chain
In the case of B2, the Radioimmunoassay (units/ml) in experiment [3] came out at 8450 units/ml.

B3: expression product of pCSF-Bam: 158 amino acids of CSF-1 fused to six vector-derived residues (ligand)
chain: EEVSEYCSHMIGSGHLQSLQRLIDSQMETSCQITFEFVDQEQLKDPVCYLKKAFLLVQYIMEDTMRFRDNTPNAIAIVQLQELSLRLKSCFTKDYEEHDKACVRTFYETPLQLLEKVKNVFNETKNLLDKDWNIFSKNCNNSFAECSSQGHERQSEGSRHDKIH
In experiment [3], B3 returned a Radioimmunoassay (units/ml) of 9600 units/ml. Moreover, the “Bone Marrow Assay, Colony (units/ml)” value in experiment [4] came out at 22600 units/ml.

B4: SCSF/C∇150, expression product of pCSF-Gly150 (ligand)
chain: EEVSEYCSHMIGSGHLQSLQRLIDSQMETSCQITFEFVDQEQLKDPVCYLKKAFLLVQYIMEDTMRFRDNTPNAIAIVQLQELSLRLKSCFTKDYEEHDKACVRTFYETPLQLLEKVKNVFNETKNLLDKDWNIFSKNCNNSFAECSSQG
For the molecule B4, in experiment [5], the Radioimmunoassay (units/ml) was found to be 26800 units/ml. Also, the “Bone Marrow Assay, Colony (units/ml)” value in experiment [4] is 55700 units/ml.

B5: SCSF, expression product of pcCSF-17 (short form of human CSF-1) (ligand)
chain: EEVSEYCSHMIGSGHLQSLQRLIDSQMETSCQITFEFVDQEQLKDPVCYLKKAFLLVQYIMEDTMRFRDNTPNAIAIVQLQELSLRLKSCFTKDYEEHDKACVRTFYETPLQLLEKVKNVFNETKNLLDKDWNIFSKNCNNSFAECSSQGHERQSEGSSSPQLQESVFHLLVPSVILVLLAVGGLLFYRWRRRSHQEPQRADSPLEQPEGSPLTQDDRQVELPV
In turn, B5 came in with a Radioimmunoassay (units/ml) in experiment [3] of 3130 units/ml. In addition, the CSF-1 by radioimmunoassay (U/ml) in experiment [6] stood at 2340 U/ml. In experiment [1], this molecule gave a Bone Marrow Assay, Colony (units/ml) of 11100 units/ml and a Bone Marrow Assay, Proliferation (units/ml) of 2800 units/ml. Also, the CSF-1 concentration by radioreceptor assay in experiment [7] is 2470 U/ml and 3240 U/ml.
